The target in this assay is T1, soluble CD22-Fc (R&D Systems) (UniProt P20273 20-687).
T1 construct: Bought reagent used to stain CD22 CARs; not shown: Fc part; detected with anti-human IgG Fc-gamma secondary
T1 sequence (looked up): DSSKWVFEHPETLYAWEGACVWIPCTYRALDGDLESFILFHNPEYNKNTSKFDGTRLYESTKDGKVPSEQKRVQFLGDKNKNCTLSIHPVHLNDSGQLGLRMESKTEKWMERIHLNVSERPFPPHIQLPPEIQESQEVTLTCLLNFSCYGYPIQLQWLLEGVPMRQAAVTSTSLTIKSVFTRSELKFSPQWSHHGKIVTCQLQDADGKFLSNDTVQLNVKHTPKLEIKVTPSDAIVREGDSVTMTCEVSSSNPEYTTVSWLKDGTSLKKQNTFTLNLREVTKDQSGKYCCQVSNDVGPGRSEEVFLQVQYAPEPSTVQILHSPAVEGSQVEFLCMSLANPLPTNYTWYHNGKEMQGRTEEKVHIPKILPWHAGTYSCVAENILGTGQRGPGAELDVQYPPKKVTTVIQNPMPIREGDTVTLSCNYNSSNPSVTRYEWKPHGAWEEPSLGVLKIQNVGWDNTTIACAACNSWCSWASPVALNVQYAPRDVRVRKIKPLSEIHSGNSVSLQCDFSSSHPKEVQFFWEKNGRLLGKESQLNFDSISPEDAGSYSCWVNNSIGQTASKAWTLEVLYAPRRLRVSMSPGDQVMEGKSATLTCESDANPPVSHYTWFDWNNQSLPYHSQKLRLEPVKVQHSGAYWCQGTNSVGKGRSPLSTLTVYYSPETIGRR
The assay can be described thus: flow cytometry, soluble CD22-Fc plus anti-human Fc-PE on CAR-transduced primary T cells (FIG. 4). A general note: Flow cytometry measures light scatter and fluorescence of single cells or particles in a stream.

Changes are numbered by the printed parent chain.

B1: CD22-57 CAR (other)
chain: EVQLQQSGPGLVKPSQTLSLTCAISGDSVSNNNAAWNWIRQSPSRGLEWLGRTYHRSTWYNDYVGSVKSRITINPDTSKNQFSLQLNSVTPEDTAVYYCARETDYGDYGAFDIWGQGTTVTVSSGGGGSGGGGSGGGGSQSALTQPASVSGSPGQSITISCTGSRNDIGAYESVSWYQQHPGNAPKLIIHGVNNRPSGVFDRFSVSQSGNTASLTISGLQAEDEADYYCSSHTTTSTLYVFGTGTKVTVL
notes: CAR on primary human T cells; not shown: hinge, transmembrane, 4-1BB and CD3zeta parts of the CAR
Turning to B1, the MFI is more than 20000.

B2: CD22-65 CAR (other)
chain: EVQLQQSGPGLVKPSQTLSLTCAISGDSMLSNSDTWNWIRQSPSRGLEWLGRTYHRSTWYDDYASSVRGRVSINVDTSKNQYSLQLNAVTPEDTGVYYCARVRLQDGNSWSDAFDVWGQGTMVTVSSGGGGSGGGGSGGGGSQSALTQPASASGSPGQSVTISCTGTSSDVGGYNYVSWYQQHPGKAPKLMIYDVSNRPSGVSNRFSGSKSGNTASLTISGLQAEDEADYYCSSYTSSSTLYVFGTGTQLTVLTTTPAPRPPTPAPTIASQPLSLRPEACRPAAGGAVHTRGLDFACDIYIWAPLAGTCGVLLLSLVITLYCKRGRKKLLYIFKQPFMRPVQTTQEEDGCSCRFPEEEEGGCELRVKFSRSADAPAYKQGQNQLYNELNLGRREEYDVLDKRRGRDPEMGGKPRRKNPQEGLYNELQKDKMAEAYSEIGMKGERRRGKGHDGLYQGLSTATKDTYDALHMQALPPR
notes: also called CD22-65_Zmut
Regarding B2, the MFI was more than 20000.

B3: CD22-53 CAR (other)
chain: EVQLQQSGPGLVKPSQTLSLTCAISGDSVSSNSAAWNWIRQSPSRGLEWLGRTYYRSKWYSDYAVSVKSRITINPDTSKNQFSLQLNSVTPEDTAVYYCARDPYDFWSGYPDAFDIWGQGTMVTVSSGGGGSGGGGSGGGGSQSALTQPASVSGSPGQSITISCTGTSSDVGGYNYVSWYQQHPGKAPKVIISEVNNRPSGVSHRFSGSKSGNTASLTISGLQAEDEADYFCSSYTSGRTLYVFGTGSKVTVLG
notes: Control CD22 CAR; not shown: hinge, transmembrane, 4-1BB and CD3zeta parts of the CAR
With B3, the MFI was more than 20000.

B4: CD22-58 CAR (other)
chain: EVQLQQSGPGLVNPSQTLSITCAISGDSVSSNSAAWNWIRQSPSRGLEWLGRTFYRSKWYNDYAVSVKGRITISPDTSKNQFSLQLNSVTPEDTAVYYCAGGDYYYGLDVWGQGTTVTVSSGGGGSGGGGSGGGGSQSALTQPASVSGSPGQSITISCTGSSSDVGGYNSVSWYQQHPGKAPKLMIYEVINRPSGVSHRFSGSKSGNTASLTISGLQAEDEADYYCSSYTSSSTYVFGTGTKVTVL
notes: as for B1
On to B4, for which the MFI was 5700.

B5: CD22-60 CAR (other)
chain: EVQLQQSGPGLVKPSQTLSLTCAISGDSVLSNSDTWNWIRQSPSRGLEWLGRTYHRSTWYDDYASSVRGRVSINVDTSKNQYSLQLNAVTPEDTGVYYCARDRLQDGNSWSDAFDVWGQGTMVTVSSGGGGSGGGGSGSGGSQSALTQPASVSGSPGQSITFSCTGTSSDIGGYNYVSWYQQHPGKAPKLMIYEVSNRPSGVSNRFSGTKSGNTASLTISGLQAEDEADYYCSSYTSSSTLYVFGTGTKLTVL
notes: as for B1
Consider B5, for which the MFI is more than 20000.

B6: CD22-61 CAR (other)
chain: B5 chain with E1Q, Q6E, F162I, I171V, T209S, L250V
notes: as for B1
Turning to B6, the MFI was more than 20000.

B7: CD22-64 CAR (other)
chain: EVQLQQSGPGLVKPSQTLPLTCAISGDSVLSNSDTWNWIRQSPSRGLEWLGRTYHRSTWYDDYASSVRGRVSINVDTSKNQYSLQLNAVTPEDTGVYYCARVRLQDGNSWSDAFDVWGQGTMVTVSSGGGGSGGGGSGGGGPQSALTQPASASGSPGQSVTISCTGTSSDVGGYNYVSWYQQHPGKAPKLMIYDVSNRPSGVSNRFSGSKSGNTASLTISGLQAEDEADYYCSSYTSSSTLYVFGTGTQLTVL
notes: as for B1
Turning to B7, the MFI is more than 20000.

B8: CD22-63 CAR (other)
chain: B5 chain with S139G, F162I, I171V, T209S, V243I, L250V
notes: as for B1
For B8, the MFI is more than 20000.

Source of the values: USRE49847 (dated 2024).
